According to the supplement of paper PMC10724198:
± gives the standard deviation of the averaged measurements.

System: Saccharomyces cerevisiae
Experiment: protein stability index of tFT-peptide fusion (C-terminal peptide) (PSI (0-1 scale)); higher = more stable (slower turnover)
Conditions: temperature: 30 C
Protocol: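 MPS profiling in S. cerevisiae of the yeast C-terminome library: the last 12 aa of each annotated ORF are fused to the C-terminus of a sfGFP-mCherry timer, after a GGGS linker. Cells are FACS-sorted into 8 mCherry/sfGFP bins and deep-sequenced. PSI runs from 0 (unstable) to 1 (stable); wild type and das1Δ backgrounds, two technical replicates each.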

[1] = genetic background: das1 deletion

Sequence | protein stability index [1] | protein stability index (genetic background: wild type)
DKRNLLEILDFS [RRT13 C-terminal 12 aa] | 0.72 ± 0.021 | 0.695 ± 0.029
DKSCIDIRSIIH [YAP5 C-terminal 12 aa] | 0.706 ± 0.011 | 0.726 ± 0.041
DLEDEIEMEDVV [TFG2 C-terminal 12 aa] | 0.699 ± 0.027 | 0.711 ± 0.046
DLLNKESEYLNI [FAR11 C-terminal 12 aa] | 0.705 ± 0.012 | 0.755 ± 0.061
DLRCLKYKYKNA [YGR016W C-terminal 12 aa] | 0.695 ± 0.011 | 0.348 ± 0.028
DLVAQQVVQDGH [MYO2 C-terminal 12 aa] | 0.7005 ± 0.0019 | 0.707 ± 0.019
DMMMLFGAEGDE [TAF7 C-terminal 12 aa] | 0.72102 ± 0.00011 | 0.707 ± 0.027
DNFINSVKLNFR [SEC10 C-terminal 12 aa] | 0.6945 ± 0.0052 | 0.734 ± 0.022
DPFDTNLSIKLS [YMR075C-A C-terminal 12 aa] | 0.696 ± 0.026 | 0.6827 ± 0.0066
DQTRDFGTSMEL [FOB1 C-terminal 12 aa] | 0.706 ± 0.0098 | 0.712 ± 0.0086
DTVLRKFADYKI [MPS1 C-terminal 12 aa] | 0.7043 ± 0.0052 | 0.679 ± 0.032
DVKLLPPPKKRN [NUC1 C-terminal 12 aa] | 0.67982 ± 0.00038 | 0.6883 ± 0.0014
EAASDEHFSRVV [YGL185C C-terminal 12 aa] | 0.709 ± 0.02 | 0.733 ± 0.021
ECPRFSNKHGRN [YDR169C-A C-terminal 12 aa] | 0.701 ± 0.0084 | 0.681 ± 0.014
EDDEDGSGVEYD [RTT106 C-terminal 12 aa] | 0.694 ± 0.009 | 0.7 ± 0.062
EDKDSESFSEVC [YCG1 C-terminal 12 aa] | 0.702 ± 0.016 | 0.705 ± 0.011
EDNDYELIFMNV [PML1 C-terminal 12 aa] | 0.7194 ± 0.0068 | 0.712 ± 0.019
EDVDEDTTPFNV [YTP1 C-terminal 12 aa] | 0.7138 ± 0.0053 | 0.684 ± 0.013
EDVEVPFITIHL [UBA1 C-terminal 12 aa] | 0.6884 ± 0.0057 | 0.683 ± 0.017
EDVKEEESKVGA [IOC4 C-terminal 12 aa] | 0.691 ± 0.033 | 0.664 ± 0.0082
EDYAYWGNRQLY [PER1 C-terminal 12 aa] | 0.7133 ± 0.0036 | 0.743 ± 0.038

Sequence | protein stability index [1] | protein stability index (genetic background: wild type)
EEDEEDEENEEQ [UBX2 C-terminal 12 aa] | 0.716 ± 0.016 | 0.693 ± 0.043
EEGPFKADHYRY [SAH1 C-terminal 12 aa] | 0.701 ± 0.011 | 0.694 ± 0.033
EEQINGKRKRKD [YJR107C-A C-terminal 12 aa] | 0.672 ± 0.0096 | 0.674 ± 0.022
EFIFRESRKHNV [ERP3 C-terminal 12 aa] | 0.728 ± 0.058 | 0.71 ± 0.061
EFSTLFDDYKDN [YRR1 C-terminal 12 aa] | 0.7429 ± 0.0055 | 0.767 ± 0.022
EGEISKGAENAT [YDR444W C-terminal 12 aa] | 0.676 ± 0.015 | 0.689 ± 0.011
EHKLGNTKYFED [ARP5 C-terminal 12 aa] | 0.693 ± 0.01 | 0.687 ± 0.023
EILGTDEPTVRT [PGM1 C-terminal 12 aa] | 0.693 ± 0.015 | 0.7 ± 0.014
EISNRDENSIPE [MUB1 C-terminal 12 aa] | 0.7214 ± 0.004 | 0.677 ± 0.026
EKAERRKLSQGR [QRI5 C-terminal 12 aa] | 0.686 ± 0.02 | 0.6807 ± 0.002
EKANDIGFHKYR [RPS29B C-terminal 12 aa] | 0.6797 ± 0.0058 | 0.648 ± 0.027
EKIKKILSELKK [NKP1 C-terminal 12 aa] | 0.705 ± 0.022 | 0.715 ± 0.021
EKKSKKEKKEKK [NOP58 C-terminal 12 aa] | 0.747 ± 0.07 | 0.717 ± 0.04
EKLILAKKDQPN [IST3 C-terminal 12 aa] | 0.6926 ± 0.0055 | 0.709 ± 0.046
EKMLAAPHQNKV [SPR28 C-terminal 12 aa] | 0.696 ± 0.015 | 0.6924 ± 0.001
EKPKKKEVEKTA [NOG2 C-terminal 12 aa] | 0.684 ± 0.012 | 0.688 ± 0.018
EKWASQFGSSGS [SAP1 C-terminal 12 aa] | 0.702 ± 0.024 | 0.685 ± 0.014
ELASYILKELNL [KIN2 C-terminal 12 aa] | 0.731 ± 0.028 | 0.702 ± 0.064
ELKKIILESSMK [EXO5 C-terminal 12 aa] | 0.698 ± 0.059 | 0.68 ± 0.011
ELLYIIDHLSEL [BTS1 C-terminal 12 aa] | 0.693 ± 0.023 | 0.67 ± 0.015
EMKHSLFRNPFH [PIG2 C-terminal 12 aa] | 0.705 ± 0.014 | 0.678 ± 0.015

Sequence | protein stability index [1] | protein stability index (genetic background: wild type)
EPLKESIFNQLK [MRPL23 C-terminal 12 aa] | 0.694 ± 0.013 | 0.678 ± 0.059
EQGGEGVQCASQ [YDJ1 C-terminal 12 aa] | 0.686 ± 0.014 | 0.69 ± 0.045
ERDNWWVVAQKR [TRM9 C-terminal 12 aa] | 0.744 ± 0.023 | 0.723 ± 0.012
ERINFVCETYGL [AIM14 C-terminal 12 aa] | 0.7 ± 0.018 | 0.7 ± 0.027
ERNPSQRPQRRY [RPS10B C-terminal 12 aa] | 0.686 ± 0.0083 | 0.679 ± 0.066
ERPQDWFEDIGE [FCY1 C-terminal 12 aa] | 0.7168 ± 0.0043 | 0.686 ± 0.017
ESFEKQGKIIYN [MOB2 C-terminal 12 aa] | 0.681 ± 0.0097 | 0.685 ± 0.042
ESSKDVKRNNKD [SDH7 C-terminal 12 aa] | 0.691 ± 0.012 | 0.702 ± 0.03
ETARNLAEYNGE [SEC72 C-terminal 12 aa] | 0.701 ± 0.013 | 0.728 ± 0.0056
ETGHISKDCPKA [GIS2 C-terminal 12 aa] | 0.698 ± 0.018 | 0.695 ± 0.013
ETNFWTAAMEYE [THI22 C-terminal 12 aa] | 0.717 ± 0.011 | 0.701 ± 0.014
EVPVNTADRGRL [PMU1 C-terminal 12 aa] | 0.701 ± 0.021 | 0.76 ± 0.071
EWSSGIPHPEMI [ARA2 C-terminal 12 aa] | 0.7305 ± 0.0044 | 0.667 ± 0.018
EYEPFVMYIINL [VMA5 C-terminal 12 aa] | 0.6058 ± 0.001 | 0.545 ± 0.0069
EYMIERCRGHVL [YPL108W C-terminal 12 aa] | 0.708 ± 0.032 | 0.753 ± 0.04
FANKSSSGGDEV [YIL089W C-terminal 12 aa] | 0.6849 ± 0.0047 | 0.672 ± 0.028
FASPTLSFFFPI [YGL149W C-terminal 12 aa] | 0.724 ± 0.013 | 0.7061 ± 0.002
FCTVAKIIQCFL [YDR396W C-terminal 12 aa] | 0.5838 ± 0.0053 | 0.4942 ± 0.0047
FDAVTKTLEKYA [YKR070W C-terminal 12 aa] | 0.68 ± 0.019 | 0.6879 ± 0.0054
FDLIKLALQRKK [AGX1 C-terminal 12 aa] | 0.7118 ± 0.0048 | 0.68 ± 0.04
FDREDAMKKENK [DPH2 C-terminal 12 aa] | 0.692 ± 0.024 | 0.663 ± 0.059

Sequence | protein stability index [1] | protein stability index (genetic background: wild type)
FDYDFLFGNDFA [OAF1 C-terminal 12 aa] | 0.791 ± 0.006 | 0.75 ± 0.052
FFFSNSFLPASR [YJL127W-A C-terminal 12 aa] | 0.7317 ± 0.0022 | 0.788 ± 0.11
FFTIEKYSVRRS [YOL013W-A C-terminal 12 aa] | 0.7332 ± 0.0047 | 0.681 ± 0.01
FGYESTDQILKL [NNR1 C-terminal 12 aa] | 0.738 ± 0.0047 | 0.708 ± 0.054
FHHTSKTFAFAD [YGR219W C-terminal 12 aa] | 0.696 ± 0.022 | 0.674 ± 0.0088
FHLRHHKGAEEH [ATP17 C-terminal 12 aa] | 0.7076 ± 0.0039 | 0.678 ± 0.019
FIAHLILTDALK [ULP1 C-terminal 12 aa] | 0.64 ± 0.025 | 0.691 ± 0.039
FIRFAINIHTFI [YJL009W C-terminal 12 aa] | 0.46 ± 0.0057 | 0.377 ± 0.011
FKQKYDADVLDK [RPL11A C-terminal 12 aa] | 0.6902 ± 0.0043 | 0.735 ± 0.047
FLPINVNDVPST [RGD3 C-terminal 12 aa] | 0.716 ± 0.0089 | 0.708 ± 0.069
FLWEMFELKLYL [YMR119W-A C-terminal 12 aa] | 0.7071 ± 0.0016 | 0.71 ± 0.036
FMKELEMSEESD [RAD4 C-terminal 12 aa] | 0.693 ± 0.015 | 0.738 ± 0.028
FQSEYNISDILS [CEP3 C-terminal 12 aa] | 0.703 ± 0.0092 | 0.745 ± 0.023
FRHNRSNKKSGC [GEX2 C-terminal 12 aa] | 0.707 ± 0.032 | 0.668 ± 0.069
FSAGNYKLPPGI [KTR3 C-terminal 12 aa] | 0.68 ± 0.011 | 0.7009 ± 0.0015
FSFSIFFFFCLA [YFR035C C-terminal 12 aa] | 0.291 ± 0.017 | 0.285 ± 0.0066
FSFTEEPRIVMI [DCD1 C-terminal 12 aa] | 0.689 ± 0.02 | 0.699 ± 0.03
FSNAGVEMQIRK [GNA1 C-terminal 12 aa] | 0.702 ± 0.0064 | 0.736 ± 0.04
FSSEYLLVHVQQ [YLR458W C-terminal 12 aa] | 0.662 ± 0.011 | 0.654 ± 0.036
